# Assay results taken from patent US20250295571A1, “COMPOSITIONS AND METHODS FOR STIMULATION OF HAIR GROWTH” (THE REGENTS OF THE UNIVERSITY OF CALIFORNIA, priority 2022, published 2025).
# How the values were obtained:
# [1] = tested on: grafted human occipital scalp HFs; test: Human occipital scalp HF-on-SCID mouse xenograft model, grafted human HFs; type: in vivo; details: three daily doses on post-grafting day 30; counted on post-grafting day 50; compared to BSA (n=5), rhSCUBE3 n=6
# Description: (§1) FIGS. 2A-2I. SCUBE3 induces hair growth. (2A) Expression of pan-isoform Scube3 mRNA in dorsal mouse skin at indicated postnatal time points. (2B) Time course analysis of dorsal hair growth patterns in representative control (top) and Scube3^−/− mice (bottom) between days P24-30. Mice were shaved before each round of photography. (2C) Representative images of microinjection sites for BSA (top) and rhSCUBE3 (bottom). Affi-gel blue agarose beads are visible. Newly growing anagen HFs are pigmented. (2D) Quantification of induced anagen HFs in response to rhSCUBE3 on day 14. n=7; *** P<0.0002. (2E) Representative images of microinjection sites for BSA (left) and rhSCUBE3 (right) on 20-month-old mice. Affi-gel blue agarose beads are visible. Newly growing anagen HFs are pigmented. (2F) Quantification of induced anagen HFs in aged mice on day 14 after protein injection. n=9; * P<0.0001. (2G) Expression of K14, KI67 and SCUBE3 mRNA in human anagen occipital scalp HF. […] (2I) Scattered plot of human and mouse anagen HF quantification. […]
# (§2) To start evaluating the translational potential of SCUBE3, first we examined its expression pattern in human anagen HFs from occipital scalp of volunteer donors, undergoing autologous hair transplantation procedures. […] Anagen phase human and adjacent mouse host HFs were then counted at each injection site on post-grafting day 50. […]
# [2] = tested on: anagen HFs; test: Intradermal microinjection of protein in mice starting at P48, induced anagen HFs counted on day 14; type: in vivo, mouse; details: intradermally microinjected for four days starting at P48; compared on day 14 to BSA; n=7
# Description: (§3) FIGS. 2A-2I. SCUBE3 induces hair growth. (2A) Expression of pan-isoform Scube3 mRNA in dorsal mouse skin at indicated postnatal time points. (2B) Time course analysis of dorsal hair growth patterns in representative control (top) and Scube3^−/− mice (bottom) between days P24-30. Mice were shaved before each round of photography. (2C) Representative images of microinjection sites for BSA (top) and rhSCUBE3 (bottom). Affi-gel blue agarose beads are visible. Newly growing anagen HFs are pigmented. (2D) Quantification of induced anagen HFs in response to rhSCUBE3 on day 14. n=7; *** P<0.0002. (2E) Representative images of microinjection sites for BSA (left) and rhSCUBE3 (right) on 20-month-old mice. Affi-gel blue agarose beads are visible. Newly growing anagen HFs are pigmented. (2F) Quantification of induced anagen HFs in aged mice on day 14 after protein injection. n=9; * P<0.0001. (2G) Expression of K14, KI67 and SCUBE3 mRNA in human anagen occipital scalp HF. SCUBE3 mRNA is specifically and highly expressed in DP and adjacent dermal sheath cup. (2H) Representative images of microinjection sites for BSA and rhSCUBE3 in human occipital scalp HF-on-SCID mouse xenograft model. (2I) Scattered plot of human and mouse anagen HF quantification. Striped dots represent rhSCUBE3-injected samples and solid dots represent BSA-injected samples. Tissue sections were counterstained with DAPI in 2A, 2G. […]
# [3] = tested on: anagen HFs; test: Intradermal protein microinjection in aged mice over 20 months of age, induced anagen HFs on day 14; type: in vivo, mouse; details: day 14 after protein injection, n=9
# Description: as §3
# [4] = tested on: mouse host HFs; test: Human occipital scalp HF-on-SCID mouse xenograft model, adjacent mouse host HFs; type: in vivo; details: three daily doses on post-grafting day 30; counted on post-grafting day 50; compared to BSA (n=5), rhSCUBE3 n=6
# Description: as §1, §2
molecule,measurement,setting,value
"rhSCUBE3: recombinant human SCUBE3 (Signal Peptide, CUB Domain And EGF Like Domain Containing 3) protein (protein, listed as Homo sapiens) CGGELGEFTGYIESPNYPGNYPAGVECIWNINPPPKRKILIVVPEIFLPSEDECGDVLVMRKNSSPSSITTYETCQTYERPIAFTARSRKLWINFKTSEANSARGFQIPYVTYDEDYEQLVEDIVRDGRLYASENHQEILKDKKLIKAFFEVLAHPQNYFKYTEKHKEMLPKSFIKLLRSKVSSFLRPYK",anagen entry of grafted human HFs,[1],accelerated anagen entry of grafted human HFs
same,"new hair growth (induced anagen HFs), mean difference compared to BSA",[2],18+/−3.44
same,"new hair growth at the injection sites (induced anagen HFs), mean difference vs BSA",[3],31.78+/−2.40
same,new anagen of mouse host HFs,[4],stimulated new anagen of mouse host HFs
